These are literature values, as cited in PMC12593480.

The data set deals with IL6 (Homo sapiens) (UniProt P05231).
Sequence of UniProt P05231 (P05231 30-212): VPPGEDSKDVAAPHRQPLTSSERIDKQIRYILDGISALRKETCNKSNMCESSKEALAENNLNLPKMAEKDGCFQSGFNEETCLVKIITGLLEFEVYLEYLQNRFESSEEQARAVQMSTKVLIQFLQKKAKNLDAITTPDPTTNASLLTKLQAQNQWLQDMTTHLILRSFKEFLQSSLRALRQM

“IL6 receptor alpha (from UniProt P08887)”: the Kd is 9 nM.
